Test results from paper PMC7022206.
pKd: −log10 of the molar value.

Assays:
[1] = target: NLS-conjugated polymersome nanocarriers (bipartite nucleoplasmin NLS peptide on PMOXA-PDMS-PMOXA polymersomes); assay: dual-color fluorescence lifetime cross-correlation spectroscopy
[2] = target: Cysteine-tagged FG domain of human Nup153 (human); assay: SPR

Kapα•Kapβ1 (from UniProt P52292;Q14974) (complex)
pKd [1]: > 9.40
pKd [2]: 7.61
